Data on 4 molecules can be found in patent publication US20120058906A1 (published 2012).

In test [1] the target is T1, rHuman P-Cadherin/Fc Chimera, CF (R&D Systems Cat#861-PC) (human, UniProt P22223 108-654).
T1 construct: Bought protein; also called CDH3; Fc part of the bought chimera not given
In words: MSD ECL multi-spot assay, antigen spotted on plate, Fab 0.65 uM; blank spot 441.

Test [2] concerns the target T2, rHuman IGF-1 sR (IGF-1 sR), CF (R&D Systems Cat#391-GR) (human, UniProt P08069 31-932).
T2 construct: Bought soluble receptor; also called insulin-like growth factor-1 soluble receptor; IGF-R1
The test is described as above.

Test [3] has as its target T3, Recombinant Human DLL4 (R&D Systems Cat#1506-D4/CF) (human, UniProt Q9NR61 27-524).
T3 construct: Bought protein; also called delta-like protein 4; rHuman DLL4
The test is described as above.

For test [4], the target named is T4, rHuman EGF R/Fc Chimera, CF (R&D Systems Cat#344-ER) (human, UniProt P00533 25-645).
T4 construct: Bought protein; also called epidermal growth factor receptor; Fc part of the bought chimera not given
Described as above.

Test [5] has as its target T5, rHuman HGF R/c-MET/Fc Chimera, CF (R&D Systems Cat#358-MT/CF) (human, UniProt P08581 25-932).
T5 construct: Bought protein; also called HGF R/Fc; hepatocyte growth factor receptor; Fc part of the bought chimera not given
Described as above.

Test [6] has as its target T6, rHuman CD44/Fc Chimera, CF (R&D Systems Cat#3660-CD) (human, UniProt P16070 21-220).
T6 construct: Bought protein; Fc part of the bought chimera not given
The test is described as above.

In test [7] the target is T7, rHuman ErbB2/Fc Chimera, CF (R&D Systems Cat#1129-ER) (human, UniProt P04626 23-652).
T7 construct: Bought protein; also called HER2/neu; human epidermal growth factor 2 receptor; Fc part of the bought chimera not given
Described as above.

For test [8], the target named is T1, rHuman P-Cadherin/Fc Chimera, CF (R&D …). In words: MSD ECL multi-spot assay, antigen spotted on plate, Fab 0.25 uM; blank spot 3693.
In test [9] the target is T2, rHuman IGF-1 sR (IGF-1 sR), CF (R&D …). The test is described as above.
Test [10] concerns the target T3, Recombinant Human DLL4 (R&D Systems …). The test is described as above.
Test [11] deals with T4, rHuman EGF R/Fc Chimera, CF (R&D …). The description is as above.
Test [12] deals with T8, rHuman Erythropoietin R/Fc Chimera, CF (R&D Systems Cat#963-ER) (human, UniProt P19235 25-250).
T8 construct: Bought protein; also called EPOR; EPO R/Fc; Fc part of the bought chimera not given
T8 sequence: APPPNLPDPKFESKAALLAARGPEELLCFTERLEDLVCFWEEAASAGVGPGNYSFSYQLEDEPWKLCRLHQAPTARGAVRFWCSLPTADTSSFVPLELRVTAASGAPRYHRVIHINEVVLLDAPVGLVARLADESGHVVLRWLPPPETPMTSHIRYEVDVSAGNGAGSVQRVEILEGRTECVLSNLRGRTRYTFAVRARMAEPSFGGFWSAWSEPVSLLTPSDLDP
The description is as above.

The target of test [13] is T9, rHuman Notch-1/Fc Chimera, CF (R&D Systems Cat#3647-TK) (human, UniProt P46531 19-526).
T9 construct: Bought protein; Fc part of the bought chimera not given
In words: MSD ECL multi-spot assay, antigen spotted on plate, Fab 0.36 uM; blank spot 928.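 Also: blank spot per well as comparator with Hit at signal to blank ratio of 4 or more.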

Test [14] deals with T1, rHuman P-Cadherin/Fc Chimera, CF (R&D …). Described as above.
Test [15] deals with T2, rHuman IGF-1 sR (IGF-1 sR), CF (R&D …). The description is as above.
The target of test [16] is T3, Recombinant Human DLL4 (R&D Systems …). The description is as above.
Test [17] concerns the target T4, rHuman EGF R/Fc Chimera, CF (R&D …). The description is as above.
The target in test [18] is T5, rHuman HGF R/c-MET/Fc Chimera, CF (R&D …). The test is described as above.
Test [19] addresses T8, rHuman Erythropoietin R/Fc Chimera, CF …. Described as above.
Test [20] has as its target T6, rHuman CD44/Fc Chimera, CF (R&D Systems …). Described as above.
Test [21] addresses T7, rHuman ErbB2/Fc Chimera, CF (R&D …). The test is described as above.
Test [22] deals with T9, rHuman Notch-1/Fc Chimera, CF (R&D …). In words: MSD ECL multi-spot assay, antigen spotted on plate, Fab 0.03 uM; blank spot 373.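 Also: blank spot per well as comparator with Hit at signal to blank ratio of 4 or more.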
Test [23] addresses T1, rHuman P-Cadherin/Fc Chimera, CF (R&D …). The description is as above.
For test [24], the target named is T2, rHuman IGF-1 sR (IGF-1 sR), CF (R&D …). The description is as above.
Test [25] deals with T3, Recombinant Human DLL4 (R&D Systems …). The test is described as above.
The target in test [26] is T4, rHuman EGF R/Fc Chimera, CF (R&D …). The test is described as above.
Test [27] has as its target T5, rHuman HGF R/c-MET/Fc Chimera, CF (R&D …). The description is as above.
Test [28] concerns the target T8, rHuman Erythropoietin R/Fc Chimera, CF …. The test is described as above.
The target of test [29] is T6, rHuman CD44/Fc Chimera, CF (R&D Systems …). The test is described as above.
The target in test [30] is T7, rHuman ErbB2/Fc Chimera, CF (R&D …). Described as above.

B1: Fab VH1-69_IGHD1-1*01_IGHJ6*01 & A17_IGKJ1*01 (Fab, V domains shown)
VH: QVQLVQSGAEVKKPGSSVKVSCKASGGTFSSYAISWVRQAPGQGLEWMGGIIPIFGTANYAQKFQGRVTITADKSTSTAYMELSSLRSEDTAVYYCARGYNWNDDYYYYYGMDVWGQGTTVTVSS
VL: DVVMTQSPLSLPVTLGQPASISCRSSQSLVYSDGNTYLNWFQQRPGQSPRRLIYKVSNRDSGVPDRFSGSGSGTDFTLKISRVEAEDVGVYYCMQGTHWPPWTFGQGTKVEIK
notes: Fab from E. coli; VH joined to the CH1 (Flag and His tags) of Plasmid A, VL to the kappa CL of Plasmid C
On to B1, for which the ECL signal in [1] was 695; in [2], 656; in test [3], 849; in [4], 662; in test [5] it was 437; in [6], 797. Moreover, the ECL signal in test [7] came to 2940.

B2: Fab VH1-46_IGHD2-15*01_IGHJ2*01 & L2_IGKJ1*01 (Fab, V domains shown)
VH: QVQLVQSGAEVKKPGASVKVSCKASGYTFTSYYMHWVRQAPGQGLEWMGIINPSGGSTSYAQKFQGRVTMTRDTSTSTVYMELSSLRSEDTAVYYCAREGYCSGGSCYSYWYFDLWGRGTLVTVSS
VL: not shown
On to B2, for which the ECL signal amounted to 16100 in test [8]; 4930 in test [9]; 14700 in test [10]; 88000 in [11]; 30100 in [12].

B3: Fab VH1-46_IGHD7-27*01_IGHJ2*01 & A27_IGKJ1*01 (Fab, V domains shown)
VH: QVQLVQSGAEVKKPGASVKVSCKASGYTFTSYYMHWVRQAPGQGLEWMGIINPSGGSTSYAQKFQGRVTMTRDTSTSTVYMELSSLRSEDTAVYYCARANWGYWYFDLWGRGTLVTVSS
VL: not shown
notes: as for B1
Consider B3, for which the ECL signal in [13] was 1920; in [14], 1800; in test [15], 1080; in test [16], 9080; in [17] it was 1400; in test [18], 1220. Moreover, the ECL signal in [19] stood at 2430; in test [20] it was 1540; in test [21] it was 1470.

B4: Fab VH2-5_IGHD7-27*01_IGHJ2*01 & L2_IGKJ1*01 (Fab, V domains shown)
VH: QITLKESGPTLVKPTQTLTLTCTFSGFSLSTSGVGVGWIRQPPGKALEWLALIYWNDDKRYSPSLKSRLTITKDTSKNQVVLTMTNMDPVDTATYYCAHRPNWGYWYFDLWGRGTLVTVSS
VL: not shown
B4: the ECL signal turned out to be 563 in test [22]; 352 in test [23]; 344 in [24]; 476 in test [25]; 381 in [26]; 311 in test [27]. Moreover, the ECL signal in [28] came out at 492; in test [29] it was 421; in [30] it was 2560.
